Test results as given in patent publication US12630596B2, “Engineered lysin-human defensin protein” (priority 2018, dated 2026).
Entries after “also recorded” stand apart in the source; their conditions may differ.

Columns and labels:
C. difficile R20291 [1] = test: Lytic activity of LHD on R20291 in different pH conditions; type: cell-based, Clostridium difficile
Experimental: Prior to tests, bacterial optical density at 600 nm (OD600) was adjusted to approximately 0.8-1.0. Protein LHD was added into the cell re-suspension with the final concentration of 200 μg/ml. The drop in OD600 at 37° C. was measured once per 20 minutes for 60 min. Bacterial re-suspension with sterilized water was also set as a control. Data are present as “Mean±SD”. Experiments were repeated 3 times, and representative data were shown.
Prior to tests, bacterial optical density at 600 nm (OD600) was adjusted to approximately 0.8-1.0. Protein LHD was added into the cell re-suspension with the final concentration of 100 μg/ml. The drop in OD600 at 37° C. was measured once per 20 minutes for 60 min. Bacterial re-suspension with sterile water was also set as a control. Experiments were repeated 3 times, and representative data were shown. […]

[2] = tested on: C. difficile R20291 spores; test: Treatment efficacy in the mouse model of CDI; type: in vivo, C57BL/6 mice; conditions: mice
Experimental: After 5 days of antibiotic pretreatment, mice were given autoclaved water for 2 days, followed by a single dose of clindamycin (10 mg/kg) intraperitoneally, 1 day before (day-1) challenge with C. difficile R20291 spores by gavage (day 0). The first group (R20291+PB) was infected with 10^6 C. difficile R20291 spores on day 0, and was given PBS (PB) by gavage at 4 h after spore gavage, followed by administration of PB by gavage twice a day from the first day (day 1) to the seventh day (day 7) after spore gavage. The second group (LHD+R20291) was given 400 μg LHD by gavage at 4 h after spore gavage, followed by treatments of 400 μg LHD by gavage twice a day from day 1 to day 7 after spore gavage.
C57BL/6 mice (6-week-old) were purchased from Charles River Laboratories, MA. The mice were housed in groups of 5 animals per cage under the same conditions. All studies followed the Guide for the Care and Use of Laboratory Animals of the National Institutes of Health, and were approved by the Institutes Animal Care and Use Committee (IACUC) at University of South Florida under the animal protocol number 1S00003756. Mouse model of CDI was established as described previously (Zhang, Zhao et al. 2015). The experimental design is illustrated in FIG. 6. Briefly, twenty BL6/C57 female mice were divided into two groups (n=10). Before challenge, mice were pre-treated with antibiotics mixture (ampicillin (200 mg/kg), kanamycin (40 mg/kg), gentamicin (3.5 mg/kg), colistin (4.2 mg/kg), metronidazole (21.5 mg/kg) and vancomycin (4.5 mg/kg)) in drinking water for five days. After that, all mice were given autoclaved water for 2 days, followed by a single dose of clindamycin (10 mg/kg) intraperitoneally 1 day before (day-1) challenge with C. difficile R20291 spores at 10^6 by gavage (day 0). At 4-hr post infection, one group of mice (R20291+LHD) were given a dose of 400 μg LHD in 200 μL of PBS by gavage, and another group of mice (R20291+PB) received sterilized PBS as control. From the first day (day 1) to the seventh day (day 7) after infection, mice were given a dose of 400 μg LHD or PBS by gavage twice a day. Weight changes, diarrhea, and survivals of the mice were recorded during the 7-day monitoring period. Fecal samples from mice were collected at days 0, 1, 3, 5, and 7 post challenge for quantitating C. difficile spores and TcdA/TcdB concentration.
Fecal samples were collected on days 1, 3, 5, 7 post-infection. 50 mg of feces were dissolved with 500 μl sterile MilliQ water for 16 h at 4° C., and then treated with 500 μl of purified ethanol (Sigma-Aldrich) for 60 min at room temperature to kill vegetative cells. Samples were vortexed, serially diluted and plated onto selective medium supplemented with taurocholate (0.1% w/v), Cefoxitin (16 μg/mL), L-cycloserine (250 μg/mL). The plates were incubated anaerobically at 37° C. for 48 h, colonies counted and results expressed as the CFU/gram of feces.
After challenges with C. difficile spores, feces were collected and dissolved in an equal volume (g/ml) of sterile PBS containing protease inhibitor cocktail and the supernatants were collected after centrifugation and stored at −80° C. TcdA/TcdB concentrations in the fecal samples of […] were determined by ELISA. Brieflly, 96-well Costar microplates were coated with 100 μl of anti-TcdA antibody (1 μg/ml) and anti-TcdB antibody (1 μg/ml) overnight in phosphate-buffered saline (PBS) at 4° C. On the next day, each well was blocked with 300 ul of blocking buffer (PBS+5% dry milk) at RT for 2 hrs. Next, standards and samples were added to each well (100 μl) in duplicate and incubated for 90 min at 25° C. After another set of washes, HRP-chicken anti-C. difficile Toxin A or B (1:5,000 dilution in PBS, Gallus Immunotech, Shirley, MA) was added to wells for 30 min at RT. A final set of 3 washes preceded the addition of the TMB Microwell Peroxidase Substrate for 20 minutes at RT in the dark. […]

C. difficile R20291 [3] = test: Lytic activity of LHD after incubation with mouse intestinal contents; type: in vitro ADME; conditions: 37° C., 1 hr
Experimental: Protein LHD was incubated with mouse intestinal contents at 37° C. for 15, 30 or 60 minutes, then optical drop assays were performed on C. difficile R20291 to test the lytic activity of LHD at a concentration of 100 μg/ml. Experiments were repeated 3 times, and representative data were shown.
To appreciate the stability and activity of LHD in the mouse intestine, […] was incuated with freshly prepaerd mouse intestinal contents for 15 min, 30 min and 60 min, and retrived by centrifugation. Lytic activities of LHD treated with intestinal contents were determined on strain C. difficile R20291 as described above.

[4] = 400 μg LHD by gavage twice a day, vs PBS
[5] = R20291 spores, 400 μg LHD by gavage twice a day

B1: LHD: Fusion of phage phiC2 lysin catalytic domain (LCD, 179aa), (GGGGS)3 linker and human alpha-defensin 5; SEQ ID NO:1 (protein)
chain: MKICITVGHSILKSGACTSADGVVNEYQYNKSLAPVLADTFRKEGHKVDVIICPEKQFKTKNEEKSYKIPRVNSGGYDLLIELHLNASNGQGKGSEVLYYSNKGLEYATRICDKLGTVFKNRGAKLDKRLYILNSSKPTAVLIESFFCDNKEDYDKAKKLGHEGIAKLIVEGVLNKNINGGGGSGGGGSGGGGSATCYCRTGRCATRESLSGVCEISGRLYRLCCR
C. difficile R20291 [1]; PH of 5, R20291
  lytic activity at pH: partially active
C. difficile R20291 [1]; PHs of 2, 3, and 4, R20291
  lytic activity at pH: lost almost all activity
C. difficile R20291 [1]; PHs of 6 and 7, 200 μg/ml, R20291
  lytic activity at pH: more efficiently
[2]; [4]
  number of C. difficile spores in feces: significantly decreased
  toxin-level in feces (TcdA, TcdB): significantly decreased
[2]; 7-day experimental period, 400 μg LHD by gavage twice a day
  survival: all mice receiving the treatment of LHD survived
[2]; [5]
  diarrhea rate: 60%
  duration of diarrhea: 3 days
[2]; R20291 spores, 400 μg LHD by gavage twice a day, vs PBS
  weight loss: decreased both weight loss and diarrhea rate significantly; also recorded: significantly less weight
[2]; from 3 dpi to 7 dpi, vs PBS
  weight recovery: slower
C. difficile R20291 [3]
  lytic activity after treatment with intestinal contents: did not affect lytic activity
